Columns and labels:
[1] = tested on: T1, p70-bac heparanase (human recombinant heparanase secreted by baculovirus infected insect cells)
T1 sequence: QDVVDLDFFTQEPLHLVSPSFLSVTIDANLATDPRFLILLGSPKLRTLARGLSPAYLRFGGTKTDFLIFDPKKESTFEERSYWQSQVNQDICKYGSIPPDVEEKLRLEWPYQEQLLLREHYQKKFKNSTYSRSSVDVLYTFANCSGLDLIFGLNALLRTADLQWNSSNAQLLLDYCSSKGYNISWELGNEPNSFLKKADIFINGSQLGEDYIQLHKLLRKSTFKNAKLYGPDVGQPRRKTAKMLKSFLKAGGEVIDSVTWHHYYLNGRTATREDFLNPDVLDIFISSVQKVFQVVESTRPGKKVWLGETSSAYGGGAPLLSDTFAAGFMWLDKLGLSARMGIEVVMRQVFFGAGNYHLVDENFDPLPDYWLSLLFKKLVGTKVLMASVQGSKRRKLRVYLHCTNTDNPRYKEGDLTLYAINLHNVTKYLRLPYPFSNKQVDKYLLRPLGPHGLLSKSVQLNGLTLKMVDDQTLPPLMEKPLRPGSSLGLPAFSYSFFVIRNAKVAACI

[2] = tested on: T2, p70 heparanase (about 70 kDa form of recombinant human heparanase expressed in mammalian cells)
T2 sequence: T1 sequence

Row | Substance | heparanase activity (DMB assay) and Western blot before and after cathepsin L [1] | heparanase activity (DMB assay) after trypsin digestion of CHO conditioned medium [2] | heparanase activity (DMB assay) after trypsin digestion [1]
1 | cathepsin L (Cat. No. 219412, Calbiochem) | demonstrates proteolytic processing of p70-bac heparanase by cathepsin L |  | 
2 | trypsin (Cat. No. T-8642, Sigma USA) |  | recombinant heparanase processing and activation occurred when mild trypsin digestion was employed on a crude conditioned medium of CHO cells that secrete mammalian p70 heparanase (FIG. 27). Activation was dose dependent. | reaching maximal activation of five-fold already at 15 units trypsin
